Patent publication US20160017037A1 (GlaxoSmithKline, published 2016)
Changes are numbered by the printed parent chain. Values belong to the binder of their own block, whether it stands above or below them.

What was measured:
[1] = target: T1, Recombinant human LAG-3 ECD-His6 (human, UniProt P18627 23-433); assay: SPR Biacore T100, antibody captured on Protein A, LAG-3 ECD-His6 analyte, 1:1 model, 25 C, geometric mean of 3 runs
T1 construct: also called LAG-3-His; recombinant human LAG-3-His
T1 sequence: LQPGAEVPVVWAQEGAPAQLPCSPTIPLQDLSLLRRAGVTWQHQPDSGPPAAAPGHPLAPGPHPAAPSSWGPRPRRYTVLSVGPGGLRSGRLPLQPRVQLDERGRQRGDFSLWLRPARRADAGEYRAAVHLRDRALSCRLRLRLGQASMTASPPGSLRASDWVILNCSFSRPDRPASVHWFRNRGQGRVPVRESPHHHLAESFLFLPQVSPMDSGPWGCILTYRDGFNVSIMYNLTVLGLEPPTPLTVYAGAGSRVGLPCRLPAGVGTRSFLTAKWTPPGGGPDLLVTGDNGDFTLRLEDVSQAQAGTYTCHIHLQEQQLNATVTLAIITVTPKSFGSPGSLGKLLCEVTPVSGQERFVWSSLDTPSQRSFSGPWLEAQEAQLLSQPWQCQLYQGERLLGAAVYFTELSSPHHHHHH
Procedure: (§1) Wild type fucosylated and afucosylated antibodies were compared for their ability to bind to recombinant human LAG-3 ECD with a C-terminal His6 (SEQ ID NO:51) using the Biacore™ T100 (GE Healthcare™). Protein A was immobilised on a CM5 chip by primary amine coupling. This surface was then used to capture the humanised antibodies. Recombinant human LAG-3 ECD-His6 was then passed over the captured antibodies at 32, 8, 2, 0.5 and 0.125 nM and regeneration was carried out using 50 mM NaOH. The binding curves were double referenced with buffer injection (i.e. 0 nM) and the data was fitted to the T100 analysis software using the 1:1 model. The run was carried out at 25° C., using HBS-EP as the running buffer.
(§2) In order to investigate the statistical significance of this kinetic data, this experiment was repeated 3 times with the same batch of the four antibodies and the chimeric control. KD, ka and kd parameters were each log (base 10) transformed prior to separate statistical analyses. For each parameter, a mixed model analysis of variance CAnova′) was performed on transformed data, including terms for Run (random block effect) and Antibody.

[2] = target: T1, Recombinant human LAG-3 ECD-His6; assay: SPR Biacore T100, antibody captured on Protein A, LAG-3 ECD-His6 analyte, 1:1 model, 25 C, geometric mean of 3 runs (table head says nM; value is in M by paragraph 194)
Procedure: as §1, §2

[3] = target: T2, Recombinant baboon LAG-3 ECD-His6 (baboon, UniProt P18627 24-433 (human entry)); assay: SPR Biacore T100 (orthologues at 37 C, human at 25 C)
T2 construct: In-house generated
T2 chain: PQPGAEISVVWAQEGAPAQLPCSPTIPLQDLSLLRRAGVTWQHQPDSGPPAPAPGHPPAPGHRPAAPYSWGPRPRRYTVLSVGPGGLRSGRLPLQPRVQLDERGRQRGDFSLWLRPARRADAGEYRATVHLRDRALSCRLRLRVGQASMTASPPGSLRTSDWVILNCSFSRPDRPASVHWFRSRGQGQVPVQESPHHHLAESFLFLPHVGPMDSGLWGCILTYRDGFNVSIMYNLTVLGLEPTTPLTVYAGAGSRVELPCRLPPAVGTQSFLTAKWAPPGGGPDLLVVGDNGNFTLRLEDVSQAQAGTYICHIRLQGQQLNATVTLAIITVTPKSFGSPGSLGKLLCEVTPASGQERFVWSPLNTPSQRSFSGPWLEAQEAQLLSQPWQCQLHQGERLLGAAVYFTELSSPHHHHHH
Procedure: as §1
(§3) Protein A was immobilised on a CM5 chip by primary amine coupling. This surface was then used to capture the humanised antibodies. In-house generated recombinant cynomolgus macaque and baboon LAG-3 ECD-His6 were then passed over the captured antibodies and regeneration was carried out using 50 mM NaOH. LAG-3 ECD-His6 was passed over at 16, 4, 1, 0.25 and 0.0625 nM. The binding curves were double referenced with buffer injection (i.e. 0 nM) and the data was fitted to the T100 analysis software using the 1:1 model. The run was carried out at 37° C. using HBS-EP as the running buffer.

[4] = target: T3, Recombinant cynomolgus macaque LAG-3 ECD-His6 (cynomolgus macaque, UniProt P18627 24-433 (human entry)); assay: as above
T3 construct: In-house generated; also called cyno LAG-3
T3 chain: T2 chain with Q188R, E193G, T243A, V288A, N293D, R357H
Procedure: as §1, §3

koff [1]: 0.0275 s⁻¹
Kd [2]: 2.76 nM
fold improvement in affinity against human recombinant LAG-3 ECD-His6 [3]: ~100 fold
fold improvement in affinity against human recombinant LAG-3 ECD-His6 [4]: ~100 fold
B1: IMP731 (antibody, human IgG1, kappa)
heavy: not shown
light: DIVMTQSPSSLAVSVGQKVTMSCKSSQSLLNGSNQKNYLAWYQQKPGQSPKLLVYFASTRDSGVPDRFIGSGSGTDFTLTISSVQAEDLADYFCLQHFGTPPTFGGGTKLEIKRTVAAPSVFIFPPSDEQLKSGTASVVCLLNNFYPREAKVQWKVDNALQSGNSQESVTEQDSKDSTYSLSSTLTLSKADYEKHKVYACEVTHQGLSSPVTKSFNRGEC
notes: Chimeric (murine variable domains, human IgG1/kappa constant regions); also called A9H12; chimeric antibody IMP731

koff [1]: 0.00441 s⁻¹
Kd [2]: 0.218 nM
fold improvement in affinity against human recombinant LAG-3 ECD-His6 [3]: 10 fold
fold improvement in affinity against human recombinant LAG-3 ECD-His6 [4]: 10 fold
B2: H5L7BW (antibody, human IgG1, kappa)
heavy: not shown
light: DIQMTQSPSSLSASVGDRVTITCKSSQSLLNPSNQKNYLAWYQQKPGKAPKLLVYFASTRDSGVPSRFSGSGSGTDFTLTISSLQPEDFATYYCLQHFGTPPTFGQGTKLEIKRTVAAPSVFIFPPSDEQLKSGTASVVCLLNNFYPREAKVQWKVDNALQSGNSQESVTEQDSKDSTYSLSSTLTLSKADYEKHKVYACEVTHQGLSSPVTKSFNRGEC
modifications: afucosylated: no fucose on the core carbohydrate structure attached to Asn297
notes: Same plasmids as H5L7, expressed in the BioWa POTELLIGENT (FUT8 knock-out CHO) cell line; also called afucosylated antibody H5L7BW; afucosylated H5L7

koff [1]: 0.00395 s⁻¹
Kd [2]: 0.208 nM
fold improvement in affinity against human recombinant LAG-3 ECD-His6 [3]: 10 fold
fold improvement in affinity against human recombinant LAG-3 ECD-His6 [4]: 10 fold
B3: H5L7 (antibody, human IgG1, kappa)
heavy: not shown
light: B2 light
notes: Humanised IgG1/kappa of A9H12 (IMP731); also called fucosylated H5L7; non-ADCC enhanced variant H5L7
